The source of these data is publication PMC7057333 (ACS Omega, 2020).

Assay [1] has as its target T1, LSD1_(172-833), lysine-specific demethylase 1 (human, UniProt O60341-1 172-833). Nature of the assay: cell-based or functional assay.
Assay [2] has as its target T1, LSD1_(172-833), lysine-specific …. Nature of the assay: SPR; LSD1 immobilised by amine coupling on CM5 (12 000-15 000 RU), peptides injected; TBS-T (25 mM Tris, 150 mM HCl as printed, 0.05% Tween-20, 1 mM DTT, pH 8.0), 15 °C; 1:1 Langmuir model or steady state; highest tested concentration 200 μM. The note with it: both partners purified. For orientation: SPR reads the build-up and loss of mass on a sensor chip optically.

The target in assay [3] is T2, LSD1_(172-833), lysine-specific demethylase 1 (human, UniProt O60341-1 172-833). Described as above. The note with it: both partners purified. The source holds these as a separate data set.
The target in assay [4] is T1, LSD1_(172-833), lysine-specific …. Kind of assay: cell-based or functional assay. The source holds these as a separate data set.
The target is the same in assay [5]. Kind of assay: enzyme inhibition kinetics (HRP-coupled fluorescence demethylation assay); 25 nM LSD1, substrate H3K4me1_(1-21), 25 mM Tris, 50 mM NaCl, 0.1 mg/mL BSA, pH 8, 1% DMSO; Ki by global fit of competitive inhibition for 1, 11, 24, 28, 31, 33, 34, else from IC50 by Cheng-Prusoff (substrate 20 μM). To be noted: both partners purified.
For assay [6], the target named is T2, LSD1_(172-833), lysine-specific …. Kind of assay: cell-based or functional assay. The source holds these as a separate data set.
Assay [7] has the same target. Kind of assay: SPR; LSD1 immobilised by amine coupling on CM5 (12 000-15 000 RU), peptides injected; TBS-T (25 mM Tris, 150 mM HCl as printed, 0.05% Tween-20, 1 mM DTT, pH 8.0), 15 °C; 1:1 Langmuir model or steady state; highest tested concentration 200 μM. To be noted: both partners purified. The source holds these as a separate data set.
Assay [8] has the same target. Kind of assay: enzyme inhibition kinetics (HRP-coupled fluorescence demethylation assay); 25 nM LSD1, substrate H3K4me1_(1-21), 25 mM Tris, 50 mM NaCl, 0.1 mg/mL BSA, pH 8, 1% DMSO; Ki by global fit of competitive inhibition for 1, 11, 24, 28, 31, 33, 34, else from IC50 by Cheng-Prusoff (substrate 20 μM). The note with it: both partners purified. This is another data set of the same source.

Read-outs that look alike come from different tables or passages of the source. Numbered stars: 1 amine (or outer) side, 2 acyl side, 3 side chain; on linkers, the order of the positions; unused ones are H or OH. Bridge positions count the residues as written; N and C are the ends. Square brackets hold non-standard residues; d marks the D form. Ends that are not written are not given here. dNle(6-ylidene) = O=C([C@@H](CCCC=[*:3])N[*:1])[*:2]; Gly(pent-4-enyl) = C=CCCC[C@H](N)C(=O)O; Lys(N3) = [N-]=[N+]=NCCCC[C@H](N)C(=O)O; hPhe = N[C@@H](CCc1ccccc1)C(=O)O; Cit = NC(=O)NCCC[C@H](N)C(=O)O; AllylGly = C=CC[C@H](N)C(=O)O; Aoc(2) = CCCCCC[C@H](N)C(=O)O; Pra = C#CC[C@H](N)C(=O)O Some results are limits rather than exact numbers.

B1: stapled macrocycle 23 (8-carbon olefin bridge between residues 3 and 6) (peptide)
chain: AR[Gly(pent-4-enyl)]MQ[Gly(pent-4-enyl)]ARKST-NH2
modifications: staple 3-6
In the case of B1, the “% inhibition of LSD1 demethylase activity at 100 μM peptide” value (from here on “% inhibition”) in assay [1] worked out at 75%.

B2: H3_(1-11) with L-homophenylalanine at position 4 (peptide 17) (peptide)
chain: ART[hPhe]QTARKST-NH2
For B2, in assay [2], the Kd (commonly the constant that tells how readily two partners part at equilibrium) was over 200 µM.

B3: stapled peptide 21 (Thr3-Thr6 cyclization, 4-carbon olefin bridge) (peptide)
chain: AR[AllylGly]MQ[AllylGly]ARKST-NH2
modifications: staple 3-6
Consider B3, for which the “% inhibition” value in assay [1] amounted to 95%.

B4: H3_(1-13) K4M (peptide 3) (peptide)
peptide: ARTMQTARKSTGG
As to B4, the Kd in assay [3] came to 36 µM.

B5: peptide 18, linear precursor of 19 (allylglycine at positions 1 and 3 of H3_(1-11) K4M) (peptide)
chain: [AllylGly]R[AllylGly]MQTARKST-NH2
As for B5, in assay [1], the “% inhibition” value amounted to 98%.

B6: stapled peptide 19 (Ala1-Thr3 cyclization, 4-carbon olefin bridge) (peptide)
chain: [AllylGly]R[AllylGly]MQTARKST-NH2
modifications: staple 1-3
With B6, the “% inhibition” value in assay [1] is 100%.

B7: triazole 35 (triazole-bridged H3_(1-11) K4M, azidolysine at 3, propargylglycine at 6) (peptide)
chain: AR[Lys(N3)]MQ[Pra]ARKST-NH2
modifications: triazole 3-6
As to B7, the “% inhibition” value in assay [4] was under 30%. The Ki (in general, a dissociation constant, usually derived from enzyme kinetics or from competition with a known ligand) in assay [5] was over 100 µM.

B8: lactam 34 (Arg8Cit-substituted analogue of peptide 28) (peptide)
chain: AREMQKA[Cit]KST-NH2
modifications: lactam 3-6
Take B8: in assay [4], the “% inhibition” value turned out to be 97%. This molecule showed a Ki in assay [5] of 8 µM.

B9: H3_(1-11) with 2-S-amino octanoic acid at position 4 (peptide 16) (peptide)
chain: ART[Aoc(2)]QTARKST-NH2
In assay [2], B9 registered a Kd of over 200 µM.

B10: H3_(1-9) K4M (peptide 5) (peptide)
peptide: ARTMQTARK
In turn, B10 registered a Kd in assay [3] of over 200 µM.

B11: stapled macrocycle 26 (stereoisomer of 23, D-pentenyl glycine at 3 and 6) (peptide)
chain: AR[dNle(6-ylidene)]MQ[dNle(6-ylidene)]ARKST-NH2
modifications: staple 3-6
For B11, in assay [1], the “% inhibition” value turned out to be 90%.

B12: H3_(1-15) K4M (peptide 2) (peptide)
peptide: ARTMQTARKSTGGKA
For the molecule B12, the dissociation constant (Kd) in assay [3] was determined as 5 µM.

B13: H3_(2-21) K4M (peptide 7) (peptide)
peptide: Ac-RTMQTARKSTGGKAPRKQLA
In assay [3], B13 yielded a dissociation constant (Kd) of 45 µM.

B14: lactam 33 (Arg2Cit-substituted analogue of peptide 28) (peptide)
chain: A[Cit]EMQKARKST-NH2
modifications: lactam 3-6
With B14, the “% inhibition” value in assay [4] amounted to 97%. The molecule further had a Ki in assay [5] of 4.2 µM.

B15: H3_(1-11) K4 (peptide 9), wild-type 11-mer (peptide)
peptide: ARTKQTARKST-NH2
Consider B15, for which the Kd in assay [3] is over 100 µM.

B16: H3_(1-11) K4M (peptide 4) (peptide)
peptide: ARTMQTARKST
For the molecule B16, in assay [6], the “IC50 of inhibition of LSD1 demethylation of H3_(1-21) K4(Me), enzyme activity assay” value is over 100 µM.

B17: A1P-substituted H3_(1-11) K4M (peptide 11) (peptide)
peptide: PRTMQTARKST-NH2
In assay [7], B17 displayed a Kd of 10 µM. Further, the inhibition constant Ki in assay [8] worked out at 8 µM.

B18: H3_(1-7) K4M (peptide 6) (peptide)
peptide: ARTMQTA
Molecule B18 returned a Kd in assay [3] of over 200 µM.

B19: triazole 36 (triazole-bridged H3_(1-11) K4M, propargylglycine at 3, azidolysine at 6) (peptide)
chain: AR[Pra]MQ[Lys(N3)]ARKST-NH2
modifications: triazole 3-6
Regarding B19, the “% inhibition” value in assay [4] stood at 70%. This molecule also came in with a Ki in assay [5] of 30 µM.

B20: peptide 22, linear precursor of 23 (pentenylglycine at positions 3 and 6 of H3_(1-11) K4M) (peptide)
chain: AR[Gly(pent-4-enyl)]MQ[Gly(pent-4-enyl)]ARKST-NH2
Turning to B20, the “% inhibition” value in assay [1] turned out to be 100%.
